Columns and labels:
[1] = target: T1, secreted L-arabinose isomerase (L-AI) from L. sakei 23 K, purified from L. lactis MRS40 (Latilactobacillus sakei, UniProt Q38UH2); assay: bioconversion to D-tagatose, cysteine carbazole assay; assay type: biochemical; details: 10 g/l D-galactose, 0.3 mg/ml enzyme, pH 5.0, 6.0 and 7.0
T1 construct: gene araA; araA fused behind SPUsp45 signal peptide and LEISSTCDA propeptide (pSEC:LEISS:araA); secreted by Lactococcus lactis NZ9000 htrA clpP (MRS40), purified from supernatant; about 56 kDa monomer, homotetramer
T1 sequence (Q38UH2 2-474 limits assumed): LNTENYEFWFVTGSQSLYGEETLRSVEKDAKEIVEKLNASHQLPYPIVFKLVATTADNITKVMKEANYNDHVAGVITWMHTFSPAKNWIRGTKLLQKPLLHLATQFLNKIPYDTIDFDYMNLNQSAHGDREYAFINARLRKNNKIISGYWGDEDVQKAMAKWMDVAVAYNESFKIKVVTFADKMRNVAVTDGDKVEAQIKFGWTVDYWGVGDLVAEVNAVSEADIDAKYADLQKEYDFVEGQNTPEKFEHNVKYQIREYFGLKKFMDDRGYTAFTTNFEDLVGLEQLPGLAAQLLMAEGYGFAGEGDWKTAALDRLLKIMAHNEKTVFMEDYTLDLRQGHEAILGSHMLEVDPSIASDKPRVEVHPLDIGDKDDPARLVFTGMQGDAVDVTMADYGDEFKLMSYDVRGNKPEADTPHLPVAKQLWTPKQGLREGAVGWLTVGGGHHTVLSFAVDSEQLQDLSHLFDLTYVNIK

[2] = target: the molecule itself; assay: SEC; gel filtration chromatography of the purified L-AI preparations, calibrated with protein markers of 669, 440, 232, 140 and 66 kDa; read together with SDS-PAGE (monomer about 56 kDa)

Molecule: OC[C@H]1OC(O)[C@H](O)[C@@H](O)[C@H]1O (stereo partly drawn) [D-galactose]
- bioconversion to D-tagatose, cysteine carbazole assay [1]: The purified secreted L-AI displayed a high efficiency to isomerize the D-galactose into D-tagatose

B1: L-arabinose isomerase (L-AI) from Lactobacillus sakei 23 K, produced intracellularly in E. coli (enzyme, UniProt Q38UH2 1-474, looked up)
chain: MLNTENYEFWFVTGSQSLYGEETLRSVEKDAKEIVEKLNASHQLPYPIVFKLVATTADNITKVMKEANYNDHVAGVITWMHTFSPAKNWIRGTKLLQKPLLHLATQFLNKIPYDTIDFDYMNLNQSAHGDREYAFINARLRKNNKIISGYWGDEDVQKAMAKWMDVAVAYNESFKIKVVTFADKMRNVAVTDGDKVEAQIKFGWTVDYWGVGDLVAEVNAVSEADIDAKYADLQKEYDFVEGQNTPEKFEHNVKYQIREYFGLKKFMDDRGYTAFTTNFEDLVGLEQLPGLAAQLLMAEGYGFAGEGDWKTAALDRLLKIMAHNEKTVFMEDYTLDLRQGHEAILGSHMLEVDPSIASDKPRVEVHPLDIGDKDDPARLVFTGMQGDAVDVTMADYGDEFKLMSYDVRGNKPEADTPHLPVAKQLWTPKQGLREGAVGWLTVGGGHHTVLSFAVDSEQLQDLSHLFDLTYVNIK
notes: L-arabinose isomerase (araA gene product) of Lactobacillus sakei 23 K; apparent molecular weight of the monomer about 56 kDa on SDS-PAGE; also called intracellular form; purified L-AI from E. coli; source: E. coli BL21 (strain MRS36, plasmid pMR36), over-expressed and purified as previously reported [30]
- stoichiometry N [2]: 4

B2: secreted L-arabinose isomerase (L-AI) from Lactobacillus sakei 23 K, secreted by L. lactis MRS40 (pSEC:LEISS:araA) (enzyme)
chain: LEISSTCDAALNTENYEFWFVTGSQSLYGEETLRSVEKDAKEIVEKLNASHQLPYPIVFKLVATTADNITKVMKEANYNDHVAGVITWMHTFSPAKNWIRGTKLLQKPLLHLATQFLNKIPYDTIDFDYMNLNQSAHGDREYAFINARLRKNNKIISGYWGDEDVQKAMAKWMDVAVAYNESFKIKVVTFADKMRNVAVTDGDKVEAQIKFGWTVDYWGVGDLVAEVNAVSEADIDAKYADLQKEYDFVEGQNTPEKFEHNVKYQIREYFGLKKFMDDRGYTAFTTNFEDLVGLEQLPGLAAQLLMAEGYGFAGEGDWKTAALDRLLKIMAHNEKTVFMEDYTLDLRQGHEAILGSHMLEVDPSIASDKPRVEVHPLDIGDKDDPARLVFTGMQGDAVDVTMADYGDEFKLMSYDVRGNKPEADTPHLPVAKQLWTPKQGLREGAVGWLTVGGGHHTVLSFAVDSEQLQDLSHLFDLTYVNIK
- stoichiometry N [2]: 4
